Positions of bridges follow the written chain, without caps; N, C: chain ends. Non-standard residues stand in square brackets, D forms with d. Trp(1-Me) = Cn1cc(C[C@H](N)C(=O)O)c2ccccc21; 2Nal = N[C@@H](Cc1ccc2ccccc2c1)C(=O)O; Sar = CNCC(=O)O

The labels stand for the following.
B1: Compound 76 (peptide)
peptide: Ac-SEFCI[Trp(1-Me)]QDW[Sar]EHRC[Sar]EA-NH2
modifications: disulfide 4-14
SMILES: CC[C@H](C)[C@@H]1NC(=O)[C@@H](NC(=O)[C@H](Cc2ccccc2)NC(=O)[C@H](CCC(=O)O)NC(=O)[C@H](CO)NC(C)=O)CSSC[C@@H](C(=O)N(C)CC(=O)N[C@@H](CCC(=O)O)C(=O)N[C@@H](C)C(N)=O)NC(=O)[C@H](CCCNC(=N)N)NC(=O)[C@H](Cc2c[nH]cn2)NC(=O)[C@H](CCC(=O)O)NC(=O)CN(C)C(=O)[C@H](Cc2c[nH]c3ccccc23)NC(=O)[C@H](CC(=O)O)NC(=O)[C@H](CCC(N)=O)NC(=O)[C@H](Cc2cn(C)c3ccccc23)NC1=O
B2: Compound 60 (peptide)
peptide: Ac-EGSAFCI[2Nal]QDWGEHRCTE-NH2
modifications: disulfide 6-16
SMILES: CC[C@H](C)[C@@H]1NC(=O)[C@@H](NC(=O)[C@H](Cc2ccccc2)NC(=O)[C@H](C)NC(=O)[C@H](CO)NC(=O)CNC(=O)[C@H](CCC(=O)O)NC(C)=O)CSSC[C@@H](C(=O)N[C@H](C(=O)N[C@@H](CCC(=O)O)C(N)=O)[C@@H](C)O)NC(=O)[C@H](CCCNC(=N)N)NC(=O)[C@H](Cc2c[nH]cn2)NC(=O)[C@H](CCC(=O)O)NC(=O)CNC(=O)[C@H](Cc2c[nH]c3ccccc23)NC(=O)[C@H](CC(=O)O)NC(=O)[C@H](CCC(N)=O)NC(=O)[C@H](Cc2ccc3ccccc3c2)NC1=O
B3: Compound 57 (peptide)
peptide: Ac-EGSAFCI[Trp(1-Me)]QDWGEHRCTE-NH2
modifications: disulfide 6-16
SMILES: CC[C@H](C)[C@@H]1NC(=O)[C@@H](NC(=O)[C@H](Cc2ccccc2)NC(=O)[C@H](C)NC(=O)[C@H](CO)NC(=O)CNC(=O)[C@H](CCC(=O)O)NC(C)=O)CSSC[C@@H](C(=O)N[C@H](C(=O)N[C@@H](CCC(=O)O)C(N)=O)[C@@H](C)O)NC(=O)[C@H](CCCNC(=N)N)NC(=O)[C@H](Cc2c[nH]cn2)NC(=O)[C@H](CCC(=O)O)NC(=O)CNC(=O)[C@H](Cc2c[nH]c3ccccc23)NC(=O)[C@H](CC(=O)O)NC(=O)[C@H](CCC(N)=O)NC(=O)[C@H](Cc2cn(C)c3ccccc23)NC1=O
B4: Compound 64 (peptide)
peptide: Ac-FCI[2Nal]QDWGEHRCTGAES-NH2
modifications: disulfide 2-12
SMILES: CC[C@H](C)[C@@H]1NC(=O)[C@@H](NC(=O)[C@H](Cc2ccccc2)NC(C)=O)CSSC[C@@H](C(=O)N[C@H](C(=O)NCC(=O)N[C@@H](C)C(=O)N[C@@H](CCC(=O)O)C(=O)N[C@@H](CO)C(N)=O)[C@@H](C)O)NC(=O)[C@H](CCCNC(=N)N)NC(=O)[C@H](Cc2c[nH]cn2)NC(=O)[C@H](CCC(=O)O)NC(=O)CNC(=O)[C@H](Cc2c[nH]c3ccccc23)NC(=O)[C@H](CC(=O)O)NC(=O)[C@H](CCC(N)=O)NC(=O)[C@H](Cc2ccc3ccccc3c2)NC1=O
B5: Compound 68 (peptide)
peptide: Ac-YCI[Trp(1-Me)]QDWGEHRCTEAGS-NH2
modifications: disulfide 2-12
SMILES: CC[C@H](C)[C@@H]1NC(=O)[C@@H](NC(=O)[C@H](Cc2ccc(O)cc2)NC(C)=O)CSSC[C@@H](C(=O)N[C@H](C(=O)N[C@@H](CCC(=O)O)C(=O)N[C@@H](C)C(=O)NCC(=O)N[C@@H](CO)C(N)=O)[C@@H](C)O)NC(=O)[C@H](CCCNC(=N)N)NC(=O)[C@H](Cc2c[nH]cn2)NC(=O)[C@H](CCC(=O)O)NC(=O)CNC(=O)[C@H](Cc2c[nH]c3ccccc23)NC(=O)[C@H](CC(=O)O)NC(=O)[C@H](CCC(N)=O)NC(=O)[C@H](Cc2cn(C)c3ccccc23)NC1=O
B6: Compound 58 (peptide)
peptide: Ac-EGSAFCI[Trp(1-Me)]QDWGEHRCEGE-NH2
modifications: disulfide 6-16
SMILES: CC[C@H](C)[C@@H]1NC(=O)[C@@H](NC(=O)[C@H](Cc2ccccc2)NC(=O)[C@H](C)NC(=O)[C@H](CO)NC(=O)CNC(=O)[C@H](CCC(=O)O)NC(C)=O)CSSC[C@@H](C(=O)N[C@@H](CCC(=O)O)C(=O)NCC(=O)N[C@@H](CCC(=O)O)C(N)=O)NC(=O)[C@H](CCCNC(=N)N)NC(=O)[C@H](Cc2c[nH]cn2)NC(=O)[C@H](CCC(=O)O)NC(=O)CNC(=O)[C@H](Cc2c[nH]c3ccccc23)NC(=O)[C@H](CC(=O)O)NC(=O)[C@H](CCC(N)=O)NC(=O)[C@H](Cc2cn(C)c3ccccc23)NC1=O
B7: Compound 71 (peptide)
peptide: Ac-SEYCI[Trp(1-Me)]QDWGEHRC[Sar]EA-NH2
modifications: disulfide 4-14
SMILES: CC[C@H](C)[C@@H]1NC(=O)[C@@H](NC(=O)[C@H](Cc2ccc(O)cc2)NC(=O)[C@H](CCC(=O)O)NC(=O)[C@H](CO)NC(C)=O)CSSC[C@@H](C(=O)N(C)CC(=O)N[C@@H](CCC(=O)O)C(=O)N[C@@H](C)C(N)=O)NC(=O)[C@H](CCCNC(=N)N)NC(=O)[C@H](Cc2c[nH]cn2)NC(=O)[C@H](CCC(=O)O)NC(=O)CNC(=O)[C@H](Cc2c[nH]c3ccccc23)NC(=O)[C@H](CC(=O)O)NC(=O)[C@H](CCC(N)=O)NC(=O)[C@H](Cc2cn(C)c3ccccc23)NC1=O
B8: Compound 59 (peptide)
peptide: Ac-EGSAYCI[Trp(1-Me)]QDWGEHRCTE-NH2
modifications: disulfide 6-16
SMILES: CC[C@H](C)[C@@H]1NC(=O)[C@@H](NC(=O)[C@H](Cc2ccc(O)cc2)NC(=O)[C@H](C)NC(=O)[C@H](CO)NC(=O)CNC(=O)[C@H](CCC(=O)O)NC(C)=O)CSSC[C@@H](C(=O)N[C@H](C(=O)N[C@@H](CCC(=O)O)C(N)=O)[C@@H](C)O)NC(=O)[C@H](CCCNC(=N)N)NC(=O)[C@H](Cc2c[nH]cn2)NC(=O)[C@H](CCC(=O)O)NC(=O)CNC(=O)[C@H](Cc2c[nH]c3ccccc23)NC(=O)[C@H](CC(=O)O)NC(=O)[C@H](CCC(N)=O)NC(=O)[C@H](Cc2cn(C)c3ccccc23)NC1=O
B9: Compound 72 (peptide)
peptide: Ac-FCI[Trp(1-Me)]QDW[Sar]EHRCTGAES-NH2
modifications: disulfide 2-12
SMILES: CC[C@H](C)[C@@H]1NC(=O)[C@@H](NC(=O)[C@H](Cc2ccccc2)NC(C)=O)CSSC[C@@H](C(=O)N[C@H](C(=O)NCC(=O)N[C@@H](C)C(=O)N[C@@H](CCC(=O)O)C(=O)N[C@@H](CO)C(N)=O)[C@@H](C)O)NC(=O)[C@H](CCCNC(=N)N)NC(=O)[C@H](Cc2c[nH]cn2)NC(=O)[C@H](CCC(=O)O)NC(=O)CN(C)C(=O)[C@H](Cc2c[nH]c3ccccc23)NC(=O)[C@H](CC(=O)O)NC(=O)[C@H](CCC(N)=O)NC(=O)[C@H](Cc2cn(C)c3ccccc23)NC1=O
B10: Compound 65 (peptide)
peptide: Ac-YCI[2Nal]QDWGEHRCTGAES-NH2
modifications: disulfide 2-12
SMILES: CC[C@H](C)[C@@H]1NC(=O)[C@@H](NC(=O)[C@H](Cc2ccc(O)cc2)NC(C)=O)CSSC[C@@H](C(=O)N[C@H](C(=O)NCC(=O)N[C@@H](C)C(=O)N[C@@H](CCC(=O)O)C(=O)N[C@@H](CO)C(N)=O)[C@@H](C)O)NC(=O)[C@H](CCCNC(=N)N)NC(=O)[C@H](Cc2c[nH]cn2)NC(=O)[C@H](CCC(=O)O)NC(=O)CNC(=O)[C@H](Cc2c[nH]c3ccccc23)NC(=O)[C@H](CC(=O)O)NC(=O)[C@H](CCC(N)=O)NC(=O)[C@H](Cc2ccc3ccccc3c2)NC1=O
B11: Compound 74 (peptide)
peptide: Ac-SEFCI[Trp(1-Me)]QDWGEHRC[Sar]GAES-NH2
modifications: disulfide 4-14
SMILES: CC[C@H](C)[C@@H]1NC(=O)[C@@H](NC(=O)[C@H](Cc2ccccc2)NC(=O)[C@H](CCC(=O)O)NC(=O)[C@H](CO)NC(C)=O)CSSC[C@@H](C(=O)N(C)CC(=O)NCC(=O)N[C@@H](C)C(=O)N[C@@H](CCC(=O)O)C(=O)N[C@@H](CO)C(N)=O)NC(=O)[C@H](CCCNC(=N)N)NC(=O)[C@H](Cc2c[nH]cn2)NC(=O)[C@H](CCC(=O)O)NC(=O)CNC(=O)[C@H](Cc2c[nH]c3ccccc23)NC(=O)[C@H](CC(=O)O)NC(=O)[C@H](CCC(N)=O)NC(=O)[C@H](Cc2cn(C)c3ccccc23)NC1=O
B12: Compound 69 (peptide)
peptide: Ac-YCI[Trp(1-Me)]QDWGEHRCTESGA-NH2
modifications: disulfide 2-12
SMILES: CC[C@H](C)[C@@H]1NC(=O)[C@@H](NC(=O)[C@H](Cc2ccc(O)cc2)NC(C)=O)CSSC[C@@H](C(=O)N[C@H](C(=O)N[C@@H](CCC(=O)O)C(=O)N[C@@H](CO)C(=O)NCC(=O)N[C@@H](C)C(N)=O)[C@@H](C)O)NC(=O)[C@H](CCCNC(=N)N)NC(=O)[C@H](Cc2c[nH]cn2)NC(=O)[C@H](CCC(=O)O)NC(=O)CNC(=O)[C@H](Cc2c[nH]c3ccccc23)NC(=O)[C@H](CC(=O)O)NC(=O)[C@H](CCC(N)=O)NC(=O)[C@H](Cc2cn(C)c3ccccc23)NC1=O
B13: Compound 70 (peptide)
peptide: Ac-EGSAYCI[Trp(1-Me)]QEWGEHRC[Sar]E-NH2
modifications: disulfide 6-16
SMILES: CC[C@H](C)[C@@H]1NC(=O)[C@@H](NC(=O)[C@H](Cc2ccc(O)cc2)NC(=O)[C@H](C)NC(=O)[C@H](CO)NC(=O)CNC(=O)[C@H](CCC(=O)O)NC(C)=O)CSSC[C@@H](C(=O)N(C)CC(=O)N[C@@H](CCC(=O)O)C(N)=O)NC(=O)[C@H](CCCNC(=N)N)NC(=O)[C@H](Cc2c[nH]cn2)NC(=O)[C@H](CCC(=O)O)NC(=O)CNC(=O)[C@H](Cc2c[nH]c3ccccc23)NC(=O)[C@H](CCC(=O)O)NC(=O)[C@H](CCC(N)=O)NC(=O)[C@H](Cc2cn(C)c3ccccc23)NC1=O

For this experiment, the target named is Human C3 (human, UniProt P01024 23-1663). As to the kind of experiment: cell-based or functional assay.
Sequence of Human C3 (P01024 23-1663 limits assumed): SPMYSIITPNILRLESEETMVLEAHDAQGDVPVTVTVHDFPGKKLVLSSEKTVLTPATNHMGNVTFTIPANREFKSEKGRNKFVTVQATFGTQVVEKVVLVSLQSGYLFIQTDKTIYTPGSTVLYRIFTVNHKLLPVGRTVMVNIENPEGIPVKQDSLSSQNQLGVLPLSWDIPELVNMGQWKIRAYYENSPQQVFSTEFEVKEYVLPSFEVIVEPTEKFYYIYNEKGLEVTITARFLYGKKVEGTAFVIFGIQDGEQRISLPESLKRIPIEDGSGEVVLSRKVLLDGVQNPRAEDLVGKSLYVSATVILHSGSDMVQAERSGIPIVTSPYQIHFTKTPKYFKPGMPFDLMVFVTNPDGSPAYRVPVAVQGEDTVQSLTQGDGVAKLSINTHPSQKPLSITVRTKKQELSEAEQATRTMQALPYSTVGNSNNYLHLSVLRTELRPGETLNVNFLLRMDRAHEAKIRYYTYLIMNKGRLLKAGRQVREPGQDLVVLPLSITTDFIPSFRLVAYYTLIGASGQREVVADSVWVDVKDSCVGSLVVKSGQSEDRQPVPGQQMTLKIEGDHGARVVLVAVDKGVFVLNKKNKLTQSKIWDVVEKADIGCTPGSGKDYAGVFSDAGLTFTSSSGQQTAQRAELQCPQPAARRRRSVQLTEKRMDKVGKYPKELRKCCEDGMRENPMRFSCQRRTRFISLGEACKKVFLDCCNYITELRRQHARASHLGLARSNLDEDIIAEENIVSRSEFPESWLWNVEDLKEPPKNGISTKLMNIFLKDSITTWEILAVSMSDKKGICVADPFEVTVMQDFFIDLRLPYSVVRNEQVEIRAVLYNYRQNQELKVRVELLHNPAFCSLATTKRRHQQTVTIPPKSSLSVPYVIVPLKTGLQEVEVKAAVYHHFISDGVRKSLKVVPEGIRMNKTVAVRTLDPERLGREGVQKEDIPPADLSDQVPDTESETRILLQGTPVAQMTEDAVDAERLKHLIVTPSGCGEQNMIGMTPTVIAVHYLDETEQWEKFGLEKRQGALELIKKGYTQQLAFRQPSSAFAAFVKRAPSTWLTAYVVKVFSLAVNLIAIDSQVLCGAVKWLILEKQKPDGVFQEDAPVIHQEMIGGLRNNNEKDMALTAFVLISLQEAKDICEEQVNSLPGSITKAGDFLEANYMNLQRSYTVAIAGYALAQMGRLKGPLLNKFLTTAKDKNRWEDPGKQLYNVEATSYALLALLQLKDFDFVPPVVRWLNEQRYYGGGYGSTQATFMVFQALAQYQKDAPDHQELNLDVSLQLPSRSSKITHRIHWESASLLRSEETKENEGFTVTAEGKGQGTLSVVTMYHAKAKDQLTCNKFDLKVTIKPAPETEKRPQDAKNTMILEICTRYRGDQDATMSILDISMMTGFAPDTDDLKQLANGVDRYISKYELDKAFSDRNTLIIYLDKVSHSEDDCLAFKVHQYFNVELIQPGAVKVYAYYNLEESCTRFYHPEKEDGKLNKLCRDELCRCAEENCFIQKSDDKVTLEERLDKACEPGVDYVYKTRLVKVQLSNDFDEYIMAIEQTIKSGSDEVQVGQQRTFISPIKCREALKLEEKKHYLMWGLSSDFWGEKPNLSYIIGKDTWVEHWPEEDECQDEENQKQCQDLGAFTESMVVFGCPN
Take B1: the IC50[nM], inhibition of hemolysis is less than 100 nM.
The same measure for B2: less than 100 nM; for B3: less than 100 nM.
The figure for B4 is less than 100 nM.
The same measure for B5: less than 100 nM.
Molecule B6 returned an IC50[nM], inhibition of hemolysis of less than 100 nM.
The same measure for B7: less than 100 nM; for B8: less than 100 nM.
The same measure for B9: less than 100 nM.
The figure for B10 is less than 100 nM.
On to B11, for which the IC50[nM], inhibition of hemolysis was less than 100 nM.
In turn, B12 gave an IC50[nM], inhibition of hemolysis of less than 100 nM.
The same measure for B13: less than 100 nM.

The values are drawn from patent US20220306695A1, “COMPSTATIN ANALOGUES AND THEIR MEDICAL USES” (priority 2019, published 2022).
